{"source": "patent US7268108", "binders": {"B1": {"name": "Compound No. 2 in the Table, Ac-Nle-Ala-His-DPhe-Lys-Trp-NH2 (peptide)", "peptide": "Ac-[Nle]AH[dF]KW-NH2", "SMILES": "CCCC[C@H](NC(C)=O)C(=O)N[C@@H](C)C(=O)N[C@@H](Cc1c[nH]cn1)C(=O)N[C@H](Cc1ccccc1)C(=O)N[C@@H](CCCCN)C(=O)N[C@@H](Cc1c[nH]c2ccccc12)C(N)=O"}, "B2": {"name": "Compound No. 6 in the Table, BzlSO2-Nle-Ala-His-DPhe-Lys-Trp-NH2 (peptide)", "peptide": "Benzenesulfonyl-[Nle]AH[dF]KW-NH2", "SMILES": "CCCC[C@H](NS(=O)(=O)c1ccccc1)C(=O)N[C@@H](C)C(=O)N[C@@H](Cc1c[nH]cn1)C(=O)N[C@H](Cc1ccccc1)C(=O)N[C@@H](CCCCN)C(=O)N[C@@H](Cc1c[nH]c2ccccc12)C(N)=O"}}, "molecular_target": "melanocortin-1 receptor (MC-1r) on murine melanocytes (line S91 Cloudman) (murine) (UniProt Q01727)", "sequence (Q01727 whole entry)": "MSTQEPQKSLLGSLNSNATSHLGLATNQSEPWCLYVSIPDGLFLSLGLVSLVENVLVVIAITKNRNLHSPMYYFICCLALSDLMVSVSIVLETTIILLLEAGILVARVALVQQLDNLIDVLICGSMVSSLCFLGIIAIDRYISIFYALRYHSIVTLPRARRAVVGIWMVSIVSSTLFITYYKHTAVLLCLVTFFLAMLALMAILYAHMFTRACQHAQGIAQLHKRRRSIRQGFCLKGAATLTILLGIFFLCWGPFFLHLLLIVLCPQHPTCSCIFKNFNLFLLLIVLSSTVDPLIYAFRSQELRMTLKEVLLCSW", "test": "cell-based or functional assay", "note": "[ ]: non-standard residue; d: D form. The star is where a group is joined. dPhe(4-NO2) = N[C@H](Cc1ccc([N+](=O)[O-])cc1)C(=O)O; Benzenesulfonyl = O=S(=O)(c1ccccc1)*; d(hPhe) = N[C@H](CCc1ccccc1)C(=O)O; d2Thi = N[C@H](Cc1cccs1)C(=O)O; NMeNle = CCCC[C@H](NC)C(=O)O; PyrProp = pyridinepropionyl; Tos = Cc1ccc(S(=O)(=O)*)cc1; Nle = CCCC[C@H](N)C(=O)O"}
{"binder": "Ac-[Nle]AH[dF]RW-NH2", "note": "[Compound No. 1 in the Table, Ac-Nle-Ala-His-DPhe-Arg-Trp-NH2]", "values": [{"measurement": "cAMP production (as % of α-MSH)", "value": "80 % of α-MSH"}]}
{"binder": "B1", "values": [{"measurement": "cAMP production (as % of α-MSH)", "value": "40 % of α-MSH"}]}
{"binder": "B2", "values": [{"measurement": "cAMP production (as % of α-MSH)", "value": "55 % of α-MSH"}]}
{"binder": "Tos-[Nle]AH[dF]RW-NH2", "note": "[Compound No. 5 in the Table, Tos-Nle-Ala-His-DPhe-Arg-Trp-NH2]", "values": [{"measurement": "cAMP production (as % of α-MSH)", "value": "100 % of α-MSH"}]}
{"binder": "Ac-[NMeNle]AH[d(hPhe)]RW-NH2", "note": "[Compound No. 13 in the Table, Ac-MeNle-Ala-His-DHomoPhe-Arg-Trp-NH2]", "values": [{"measurement": "cAMP production (as % of α-MSH)", "value": "55 % of α-MSH"}]}
{"binder": "Benzenesulfonyl-[Nle]AH[dF]RW-NH2", "note": "[Compound No. 4 in the Table, BzlSO2-Nle-Ala-His-DPhe-Arg-Trp-NH2]", "values": [{"measurement": "cAMP production (as % of α-MSH)", "value": "70 % of α-MSH"}]}
{"binder": "Ac-[Nle]AH[d2Thi]RW-NH2", "note": "[Compound No. 3 in the Table, Ac-Nle-Ala-His-DThi-Arg-Trp-NH2]", "values": [{"measurement": "cAMP production (as % of α-MSH)", "value": "10 % of α-MSH"}]}
{"binder": "Ac-[Nle]AH[d(hPhe)]RW-NH2", "note": "[Compound No. 14 in the Table, Ac-Nle-Ala-His-DHomoPhe-Arg-Trp-NH2]", "values": [{"measurement": "cAMP production (as % of α-MSH)", "value": "45 % of α-MSH"}]}
{"binder": "PyrProp-[Nle]AH[dPhe(4-NO2)]RW-NH2", "note": "[Compound No. 11 in the Table, PyrProp-Nle-Ala-His-DpNO2Phe-Arg-Trp-NH2]", "values": [{"measurement": "cAMP production (as % of α-MSH)", "value": "150 % of α-MSH"}]}
